Measurements as given in the Human Domainome abundance scans (Beltran et al. 2025).
± gives the uncertainty stated by the source.

B1: Protein maelstrom homolog, residues 3 to 71; numbered along this chain, Q96JY0 (parent)
chain: NRKASRNAYYFFVQEKIPELRRRGLPVARVADAIPYCSSDWALLREEEKEKYAEMAREWRAAQGKDPGP
B2: Receptor-interacting serine/threonine-protein kinase 2, residues 438 to 518; numbered along this chain, O43353 (parent)
chain: QWIQSKREDIVNQMTEACLNQSLDALLSRDLIMKEDYELVSTKPTRTSKVRQLLDTTDIQGEEFAKVIVQKLKDNKQMGLQ

Variants of: B1
Assay: abundance fitness (aPCA) (normalised: wild type 0, dead -1); higher = more abundant; growth selection in yeast, the domain comes from the species named
Settings: Homo sapiens

Abundance fitness of substitutions, site by site:
Q63: L -0.321 ± 0.051; Y -0.242 ± 0.16; W -0.37 ± 0.091; V -0.089 ± 0.059; S 0.091 ± 0.057; A -0.018 ± 0.066; N 0.023 ± 0.083; E -0.046 ± 0.062; D -0.121 ± 0.13; G 0.126 ± 0.043; R 0.054 ± 0.042; F -0.202 ± 0.16; P -0.08 ± 0.067; H -0.31 ± 0.13; C -0.255 ± 0.13; K -0.019 ± 0.071
A56: R -0.523 ± 0.045; I -0.539 ± 0.23; K -0.671 ± 0.12; Q -0.226 ± 0.078; W -0.236 ± 0.05; S -0.02 ± 0.036; L -0.296 ± 0.057; H -0.087 ± 0.042; P -0.651 ± 0.1; V -0.268 ± 0.058; G -0.302 ± 0.045; Y 0.208 ± 0.14; N -0.16 ± 0.13
E58: W -0.523 ± 0.12; H 0.246 ± 0.18; I -0.279 ± 0.14; V -0.256 ± 0.1; G -0.082 ± 0.063; A -0.086 ± 0.071; Q -0.17 ± 0.1; R -0.189 ± 0.057; M -0.594 ± 0.17; P -0.521 ± 0.16; S -0.24 ± 0.097; Y -0.972 ± 0.39; F -0.319 ± 0.19; K -0.014 ± 0.1; T -0.392 ± 0.11; L -0.165 ± 0.071; D -0.09 ± 0.26; C -0.245 ± 0.13
G68: E 0.014 ± 0.068; C -0.12 ± 0.17; S -0.273 ± 0.098; N -0.459 ± 0.26; M -0.048 ± 0.086; Q -0.064 ± 0.1; R -0.079 ± 0.057; T -0.186 ± 0.15; I -0.296 ± 0.15; H 0.038 ± 0.18; F -0.119 ± 0.14; A -0.139 ± 0.1; K -0.025 ± 0.11; D -0.083 ± 0.087; V -0.376 ± 0.072; Y -0.646 ± 0.18; W -0.128 ± 0.098; L -0.309 ± 0.06
P69: S 0.126 ± 0.083; K 0.411 ± 0.11; H -0.049 ± 0.17; R 0.397 ± 0.18; I -0.556 ± 0.39; F 0.035 ± 0.17; G 0.392 ± 0.19; V 0.013 ± 0.086; A -0.007 ± 0.091; E 0.168 ± 0.31; N -0.341 ± 0.38; M -0.144 ± 0.14; Y 0.162 ± 0.36; L 0.189 ± 0.13; Q -0.281 ± 0.35; C 0.071 ± 0.17; W 0.11 ± 0.48
G64: S 0.035 ± 0.049; Y 0.181 ± 0.12; E 0.088 ± 0.06; A 0.146 ± 0.034; C 0.082 ± 0.082; V 0.196 ± 0.046; D 0.207 ± 0.091; P -0.022 ± 0.077; N 0.214 ± 0.095; L -0.018 ± 0.054; Q 0.165 ± 0.073; R 0.116 ± 0.047; M -0.008 ± 0.068; K 0.048 ± 0.071
P67: K -0.069 ± 0.14; R 0.118 ± 0.047; T -0.155 ± 0.078; L 0.022 ± 0.056; S -0.067 ± 0.065; A -0.098 ± 0.069; H 0.024 ± 0.11; F -0.101 ± 0.083; C -0.417 ± 0.18; N -0.105 ± 0.23; D -0.43 ± 0.18; V 0.091 ± 0.073; M -0.12 ± 0.09; E -0.046 ± 0.084; W -0.263 ± 0.07; G 0.009 ± 0.048
D66: L 0.047 ± 0.049; P -0.052 ± 0.17; F -0.116 ± 0.073; C -0.241 ± 0.11; V 0.018 ± 0.049; M 0.051 ± 0.072; S -0.042 ± 0.065; I 0.024 ± 0.094; E -0.003 ± 0.06; R -0.02 ± 0.061; T 0.173 ± 0.12; Q 0.07 ± 0.07; A -0.148 ± 0.071; W -0.155 ± 0.092; Y -0.095 ± 0.072; K 0.171 ± 0.067; H 0.122 ± 0.097
R57: H 0.206 ± 0.14; K 0.001 ± 0.13; G -0.159 ± 0.068; S -0.034 ± 0.09; M -0.01 ± 0.11; C -0.089 ± 0.15; T -0.054 ± 0.098; Y -0.236 ± 0.23; E 0.021 ± 0.097; N -0.135 ± 0.17; F -0.332 ± 0.23; A 0.05 ± 0.078; I -0.398 ± 0.42; D -0.072 ± 0.21; V -0.093 ± 0.099; L 0.003 ± 0.073; W -0.378 ± 0.094; Q -0.104 ± 0.1
R60: T 0.322 ± 0.24
K65: P -0.134 ± 0.092; Q -0.084 ± 0.089; F -0.117 ± 0.1; V -0.12 ± 0.065; S -0.154 ± 0.066; G -0.048 ± 0.046; L -0.175 ± 0.068; N -0.116 ± 0.14; M -0.497 ± 0.14; H -0.259 ± 0.11; A -0.206 ± 0.071; E -0.082 ± 0.078; T -0.26 ± 0.079; Y -0.109 ± 0.17; C 0.074 ± 0.13; R -0.037 ± 0.042

Variants of: B2
Assay: as above
Settings: Homo sapiens

Abundance fitness: each site, then its substitutions
T15: Q -0.126 ± 0.14; H -1.13 ± 0.35; G -0.566 ± 0.071; I -1.12 ± 0.34; A -0.645 ± 0.11; P -0.492 ± 0.08; K -0.736 ± 0.24; D -0.152 ± 0.11; C -0.877 ± 0.16; E -0.767 ± 0.27; N -0.518 ± 0.093; L -0.75 ± 0.12
Q4: G -0.685 ± 0.13; P -0.923 ± 0.35; I 0.135 ± 0.39; F -0.166 ± 0.15; R -0.045 ± 0.1; M 0.279 ± 0.29; S 0.09 ± 0.15; V -0.756 ± 0.34; T 0.458 ± 0.5; A -0.078 ± 0.12
E8: V -0.301 ± 0.072; C -0.994 ± 0.41; F -0.691 ± 0.32; H -0.884 ± 0.28; G -0.29 ± 0.057; P -0.527 ± 0.066; M -0.272 ± 0.16; I -0.768 ± 0.45; Q -0.569 ± 0.11; W -0.918 ± 0.12; T -0.209 ± 0.077; S -0.276 ± 0.068; L -0.507 ± 0.079; R -0.36 ± 0.055; A -0.367 ± 0.076; K -0.319 ± 0.23; D 0.031 ± 0.24
I10: V -0.628 ± 0.12; T -0.697 ± 0.15; F -0.877 ± 0.47; L -0.264 ± 0.087; N -0.476 ± 0.12; H -0.862 ± 0.23; P -0.622 ± 0.14; S -0.618 ± 0.098; G -0.764 ± 0.11; A -1.04 ± 0.31; Q -0.541 ± 0.16; W -0.968 ± 0.29; K -0.619 ± 0.16; Y -0.864 ± 0.28; C -0.712 ± 0.17; M -0.421 ± 0.23
S5: E 0.372 ± 0.27; V -0.384 ± 0.16; W -0.639 ± 0.46; D 0.224 ± 0.27; H -0.824 ± 0.36; T -0.315 ± 0.14; P -0.623 ± 0.15; R -0.125 ± 0.16; K -0.171 ± 0.27; Q -0.088 ± 0.23; L -0.216 ± 0.15; F -0.636 ± 0.43; G -0.177 ± 0.24
I3: F -0.771 ± 0.47; D -0.051 ± 0.34; K -0.975 ± 0.38; L -0.205 ± 0.091; G -0.87 ± 0.25; M -0.292 ± 0.17; T -0.745 ± 0.42; S -0.767 ± 0.22; P -0.194 ± 0.24
R7: F -0.027 ± 0.17; Y -0.501 ± 0.17; K 0.032 ± 0.14; P -0.956 ± 0.14; G -0.563 ± 0.079; V -0.611 ± 0.085; A -0.334 ± 0.081; M -1.09 ± 0.42; S -0.419 ± 0.073; C -1.04 ± 0.31; L -0.545 ± 0.085; W -0.673 ± 0.12; E -0.42 ± 0.13; I -0.838 ± 0.38; Q -0.463 ± 0.13
D9: G -0.532 ± 0.092; A -0.288 ± 0.095; M -0.328 ± 0.19; C -0.341 ± 0.19; S -0.303 ± 0.07; W -0.147 ± 0.088; Y -0.107 ± 0.15; T -0.331 ± 0.098; V -0.172 ± 0.078; E -0.317 ± 0.15; K -0.437 ± 0.15; H -0.336 ± 0.19; P -0.898 ± 0.15; N -0.731 ± 0.27; F -0.498 ± 0.28; I 0.255 ± 0.16; Q -0.151 ± 0.077
Q1: R -0.389 ± 0.47; H -0.398 ± 0.4; L -0.399 ± 0.28
Q13: A 0.032 ± 0.19; V -0.199 ± 0.23; M -0.369 ± 0.48; S 0.072 ± 0.16; E -0.027 ± 0.27; R -0.527 ± 0.18; T -0.19 ± 0.28; G -0.365 ± 0.13; L -0.541 ± 0.16; F -0.314 ± 0.45
N12: R -0.008 ± 0.059; W -0.829 ± 0.19; I -0.486 ± 0.21; C -0.028 ± 0.1; D -0.089 ± 0.14; A 0.073 ± 0.093; E 0.199 ± 0.21; K -0.039 ± 0.15; M -0.002 ± 0.19; Y -0.382 ± 0.4; V -0.374 ± 0.086; S -0.213 ± 0.071; H -0.108 ± 0.11; L -0.068 ± 0.059; G -0.162 ± 0.065; P -0.978 ± 0.23; Q -0.248 ± 0.23; F -0.62 ± 0.16
V11: G -0.553 ± 0.063; N -0.577 ± 0.27; M -0.099 ± 0.15; C -0.288 ± 0.09; W -1.03 ± 0.21; R -0.534 ± 0.081; F -0.777 ± 0.46; Q -0.776 ± 0.21; L -0.373 ± 0.074; H -0.656 ± 0.29; I 0.091 ± 0.12; P -0.503 ± 0.087; A -0.49 ± 0.075; E -0.376 ± 0.11; S -0.575 ± 0.071
W2: D -0.232 ± 0.31; K -0.435 ± 0.14; R -0.41 ± 0.088; E -0.438 ± 0.11; G -0.546 ± 0.084; M -0.4 ± 0.12; L -0.45 ± 0.074; I 0.069 ± 0.43; T -0.609 ± 0.24; C -0.556 ± 0.18; Q -0.411 ± 0.14; N -0.196 ± 0.2; H -0.684 ± 0.24; V -0.632 ± 0.1
K6: F 0.095 ± 0.44
